Series [1] relates to recombinant human PKC-δ. The note with it: Nishikawa et al. 1997; read-out: reported Km for the commercial substrate; cited from earlier work.
Series [2] relates to Elk1. Nature of the series: Elk1-luciferase reporter assay. The note with it: myristoylated peptide 2 h prior to PMA, control PMA-treated cells, FIG. 10C. The series is classed as cell-based, human. The method, then: Elk1-luciferase reporter assay: Cells were co-transfected with the reporters pFA2-Elk1, pFR-Luc (Stratagene, La Jolla, Calif.) and pCMV-β-galactosidase, and other plasmids, as necessary. Cells were lysed; promoter activity was determined by luciferase assay and normalized on β-galactosidase.
For orientation: In a reporter assay the amount or activity of a reporter protein is the signal.

Series [3] relates to recombinant human PKC-δ. Nature of the series: PKC-δ kinase assay in vitro (p81 filter / autoradiography). It counts as biochemical. The procedure: Measurement of PKC-δ activity: In vitro kinase activity assays were performed with active recombinant human PKC-δ kinase (as a GST fusion protein). PKC-δ assay in vitro was performed using 5 ng purified enzyme in a 50 μl assay containing 50 mM HEPES pH 7.4, 10 mM MgCl2, 0.2 mM DTT, sonicated lipid activators (0.5 μg phosphatidylserine and 0.05 μg diacylglycerol) or lipid activators plus PMA (as indicated in appropriate experiments) and PKC-δ substrates. The reaction was started by the addition of 50 μM ATP labeled with 5 μCi [γ-^32P]-ATP. Incubation was performed for 15 min at 30° C., unless otherwise stated. The reaction was terminated on ice, either by the addition of Laemmli buffer followed by SDS-PAGE, transferred to PVDF membrane, and autoradiography, or by the addition of 1 volume 10% phosphoric acid for p81 transfer as described below. For autophosphorylation of PKC-δ 20 μM ATP was used to start the 40-min reaction.
When hBVR or its mutants were tested for their effect on PKC-δ activity, they were pre-incubated for 5 min at room temperature with the PKC prior to substrate addition. The hBVR-derived peptides were used at concentrations indicated in appropriate figures.
When hBVR or its mutants were assayed as the sole substrates for PKC, the incubation conditions were as described above and the incubation was for 40 min at 30° C. unless specified otherwise. The reaction was terminated by the addition of Laemmli buffer, and the reaction products were detected by SDS-PAGE, transfer to PVDF membrane, and autoradiography.
Measurement of PKC-δ activity: PKC-δ assay in vitro was performed using 0.1 ng/μl purified recombinant human PKC-δ kinase with reaction conditions specified by the manufacturer. Effector molecules such as hBVR or peptides were added 5 min prior to substrate. The reaction was started by the addition of [γ-^32P]-ATP (Lerner-Marmarosh et al., “Human Biliverdin Reductase: A Member of the Insulin Receptor Substrate Family with Serine/Threonine/Tyrosine Kinase Activity,” Proc. Natl. Acad. Sci. U.S.A. 102(20):7109-7114 (2005), which is hereby incorporated by reference in its entirety). Reaction products were detected either by gel electrophoresis and autoradiography or by the p81 filter assay. PKC-δ activity on agarose beads was also measured. Cell lysates were immunoprecipitated with anti-PKC-δ antibody followed by protein A/G agarose. The immunoprecipitates were used in kinase reactions containing 50 μM PKC-δ specific peptide substrate as above; incorporation of ^32P was measured by p81 method.

For series [4], the target named is PKC-δ (Homo sapiens, UniProt Q05655). Briefly: GST-hBVR pull-down of PKC-δ from cell lysate. The series is classed as binding. Also noted: The human PKC-δ open reading frame was also cloned in the same vectors; expressed in transfected cells; host or cells: HEK 293A (PKC-δ); E. coli, pGEX-4T2 (GST-hBVR). The note with it: 30 min and 120 min incubation, FIG. 2A. The procedure: Cell Culture, infection, transfection, GST pull-down and co-immunoprecipitation: HEK 293A cells were grown in Dulbecco's Modified Eagle Medium (Invitrogen) containing 10% fetal bovine serum and 1% penicillin-G/streptomycin for 24 h or until the cells reached 70% confluency. Depending on the experiment, cells were subsequently transfected with up to 5 μg of pcDNA3-hBVR or pcDNA3-PKC-δ plasmid using Transfectin Lipid Reagent (Bio-Rad, Hercules, Calif.) in 10 cm plates. Western blotting determined overexpression of hBVR or PKC-δ. To prepare si-hBVR or sc-hBVR (containing a randomized variant of the sihBVR sequence), pSuper-Retro-si-hBVR (Miralem et al., “Small Interference RNA-Mediated Gene Silencing of Human Biliverdin Reductase, But Not That of Heme Oxygenase-1, Attenuates Arsenite-Mediated Induction of the Oxygenase and Increases Apoptosis in 293A Kidney Cells,” J. Biol. Chem. 280:17084-17092 (2005), which is hereby incorporated by reference in its entirety) or sc-hBVR, respectively, were introduced into 293A cells for packaging, and the si-hBVR or sc-hBVR retrovirus were titrated using NIH3T3 cells. […] Proteins were separated by SDS-page and detected by immunoblotting using anti-PKC-δ antibodies.

Here are results for 3 molecules from patent US9598677B2, “Use of human biliverdin reductase and fragments thereof for the treatment of protein kinase C-delta and ERK related conditions” (University of Rochester, priority 2009, dated 2017).

Entries after “also recorded” stand apart in the source; their conditions may differ. Ends that are not written are not given here.

Sequence of PKC-δ (Q05655 whole entry): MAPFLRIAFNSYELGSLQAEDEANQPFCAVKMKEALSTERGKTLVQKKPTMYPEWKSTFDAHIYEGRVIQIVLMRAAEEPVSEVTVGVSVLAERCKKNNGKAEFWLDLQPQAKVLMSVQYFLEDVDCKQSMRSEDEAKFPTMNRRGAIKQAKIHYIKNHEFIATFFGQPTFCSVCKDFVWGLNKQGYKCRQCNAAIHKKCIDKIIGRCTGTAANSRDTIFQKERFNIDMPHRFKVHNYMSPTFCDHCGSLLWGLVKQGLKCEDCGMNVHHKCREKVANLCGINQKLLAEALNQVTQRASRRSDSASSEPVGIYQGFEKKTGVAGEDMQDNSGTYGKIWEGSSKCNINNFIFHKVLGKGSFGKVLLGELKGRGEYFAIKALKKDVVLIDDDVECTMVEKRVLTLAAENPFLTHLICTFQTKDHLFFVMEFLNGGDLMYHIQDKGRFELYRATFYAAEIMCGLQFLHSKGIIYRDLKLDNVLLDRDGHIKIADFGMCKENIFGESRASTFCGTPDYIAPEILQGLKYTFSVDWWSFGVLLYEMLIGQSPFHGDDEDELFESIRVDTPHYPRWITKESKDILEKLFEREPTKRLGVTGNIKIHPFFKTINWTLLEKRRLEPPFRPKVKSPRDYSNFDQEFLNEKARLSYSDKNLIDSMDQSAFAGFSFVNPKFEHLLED

With “ARRKRKGSFFGG (PKC-delta substrate) [commercial peptide identified by Nishikawa as the optimal substrate for PKC-δ]”, in series [1], the Km (commonly the substrate concentration at which the rate is half of its maximum) is 0.98 µM.
For “SAFAGFSFVNPKFEHLLED (also: myristoylation, place not given here) [myristoylated PKC-δ bulky Ring motif C-terminal peptide]”, the “inhibition of Elk1 dependent luciferase expression” value in series [2] was 90%.

B1: hBVR: purified E. coli expressed human biliverdin reductase (protein)
chain: MNAEPERKFGVVVVGVGRAGSVRMRDLRNPHPSSAFLNLIGFVSRRELGSIDGVQQISLEDALSSQEVEVAYICSESSSHEDYIRQFLNAGKHVLVEYPMTLSLAAAQELWELAEQKGKVLHEEHVELLMEEFAFLKKEVVGKDLLKGSLLFTSDPLEEDRFGFPAFSGISRLTWLVSLFGELSLVSATLEERKEDQYMKMTVCLETEKKSPLSWIEEKGPGLKRNRYLSFHFKSGSLENVPNVGVNKNIFLKDQNIFVQKLLGQFSEKELAAEKKRILHCLGLAEEIQKYCCSRK
modifications: GST tag; Homo sapien
notes: purified E. coli expressed human biliverdin reductase
As for B1, the “PKC-δ kinase activity toward MBP in presence of hBVR” value in series [3] (2 μg GST-hBVR, 12.5 μM MBP, FIG. 1B) is recorded as “increased kinase activity”. Further, the “PKC-δ autophosphorylation in presence of hBVR” value in series [3] (FIGS. 1A, 1C, 7C) was “enhanced; also recorded: increased”. Further, in series [4], the “binding of PKC-δ from cell lysates” value is on record as “selectively bound PKC-δ”.
